Test results published in US20260167699A1 (Chugai, published 2026).

Biological target: T1, FcγRIIIa extracellular domain, C-terminal His tag (human, UniProt P08637 17-208)
T1 construct: extracellular domain; also called 3a
Experiment: SPR, binding activity relative to GpH7-A5/GpH7-B3/GpL16-k0 (=100)

T1 sequence (P08637 other isoform, or with tags, fused parts or gaps): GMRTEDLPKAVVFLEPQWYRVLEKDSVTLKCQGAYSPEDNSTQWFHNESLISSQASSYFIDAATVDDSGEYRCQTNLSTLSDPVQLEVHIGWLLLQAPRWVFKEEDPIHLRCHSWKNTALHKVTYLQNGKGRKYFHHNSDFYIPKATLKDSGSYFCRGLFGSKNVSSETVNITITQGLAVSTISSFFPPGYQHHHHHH

B1: GpH7-A5/GpH7-B3 variant P271_14T/GpL16-k0 (antibody, human IgG1, kappa)
heavy 1: not shown
heavy 2: not shown
light: DIVMTQSPLSLPVTPGEPASISCQASESLVHSNRNTYLHWYLQKPGQSPQLLIYKVSNRFSGVPDRFSGSGSGTDFTLKISRVEAEDVGVYYCSQNTHVPPTFGQGTKVEIERTVAAPSVFIFPPSDEQLKSGTASVVCLLNNFYPREAKVQWKVDNALQSGNSQESVTEQDSKDSTYSLSSTLTLSKADYEKHKVYACEVTHQGLSSPVTKSFNRGEC
notes: He Ab; copies: 1 + 1 + 2
- He/Con 3a: 59.2%

B2: GpH7-A5/GpH7-B3 variant S239_03V/GpL16-k0 (antibody, human IgG1, kappa)
heavy 1: not shown
heavy 2: not shown
light: B1 light
notes: He Ab; copies: 1 + 1 + 2
- He/Con 3a: 72.4%

B3: GpH7-A5/GpH7-B3 variant P271_19Q/GpL16-k0 (antibody, human IgG1, kappa)
heavy 1: not shown
heavy 2: not shown
light: B1 light
notes: He Ab; copies: 1 + 1 + 2
- He/Con 3a: 84.6%

B4: GpH7-A5/GpH7-B3 variant Q295_01G/GpL16-k0 (antibody, human IgG1, kappa)
heavy 1: not shown
heavy 2: not shown
light: B1 light
notes: He Ab; copies: 1 + 1 + 2
- He/Con 3a: 76.6%

B5: GpH7-A5/GpH7-B3 variant Q295_04F/GpL16-k0 (antibody, human IgG1, kappa)
heavy 1: not shown
heavy 2: not shown
light: B1 light
notes: He Ab; copies: 1 + 1 + 2
- He/Con 3a: 75.1%

B6: GpH7-A5/GpH7-B3 variant P271_18N/GpL16-k0 (antibody, human IgG1, kappa)
heavy 1: not shown
heavy 2: not shown
light: B1 light
notes: He Ab; copies: 1 + 1 + 2
- He/Con 3a: 94%

B7: GpH7-A5/GpH7-B3 variant S239_14T/GpL16-k0 (antibody, human IgG1, kappa)
heavy 1: not shown
heavy 2: not shown
light: B1 light
notes: He Ab; copies: 1 + 1 + 2
- He/Con 3a: 93%

B8: GpH7-A5/GpH7-B3 variant Q295_14T/GpL16-k0 (antibody, human IgG1, kappa)
heavy 1: not shown
heavy 2: not shown
light: B1 light
notes: He Ab; copies: 1 + 1 + 2
- He/Con 3a: 120%

B9: GpH7-A5/GpH7-B3 variant P331_14T/GpL16-k0 (antibody, human IgG1, kappa)
heavy 1: not shown
heavy 2: not shown
light: B1 light
notes: He Ab; copies: 1 + 1 + 2
- He/Con 3a: 67.8%

B10: GpH7-A5/GpH7-B3 variant P329_09D/GpL16-k0 (antibody, human IgG1, kappa)
heavy 1: not shown
heavy 2: not shown
light: B1 light
notes: He Ab; copies: 1 + 1 + 2
- He/Con 3a: 52.5%

B11: GpH7-A5/GpH7-B3 variant S239_02A/GpL16-k0 (antibody, human IgG1, kappa)
heavy 1: not shown
heavy 2: not shown
light: B1 light
notes: He Ab; copies: 1 + 1 + 2
- He/Con 3a: 70.9%

B12: GpH7-A5/GpH7-B3 variant S239_19Q/GpL16-k0 (antibody, human IgG1, kappa)
heavy 1: not shown
heavy 2: not shown
light: B1 light
notes: He Ab; copies: 1 + 1 + 2
- He/Con 3a: 53.8%

B13: GpH7-A5/GpH7-B3 variant P331_13S/GpL16-k0 (antibody, human IgG1, kappa)
heavy 1: not shown
heavy 2: not shown
light: B1 light
notes: He Ab; copies: 1 + 1 + 2
- He/Con 3a: 80.9%

B14: GpH7-A5/GpH7-B3 variant P331_09D/GpL16-k0 (antibody, human IgG1, kappa)
heavy 1: not shown
heavy 2: not shown
light: B1 light
notes: He Ab; copies: 1 + 1 + 2
- He/Con 3a: 71.6%

B15: GpH7-A5/GpH7-B3 variant Q295_07I/GpL16-k0 (antibody, human IgG1, kappa)
heavy 1: not shown
heavy 2: not shown
light: B1 light
notes: He Ab; copies: 1 + 1 + 2
- He/Con 3a: 101%

B16: GpH7-A5/GpH7-B3 variant P271_15Y/GpL16-k0 (antibody, human IgG1, kappa)
heavy 1: not shown
heavy 2: not shown
light: B1 light
notes: He Ab; copies: 1 + 1 + 2
- He/Con 3a: 62.7%

B17: GpH7-A5/GpH7-B3 variant Q295_09D/GpL16-k0 (antibody, human IgG1, kappa)
heavy 1: not shown
heavy 2: not shown
light: B1 light
notes: He Ab; copies: 1 + 1 + 2
- He/Con 3a: 85.6%

B18: GpH7-A5/GpH7-B3 variant P331_02A/GpL16-k0 (antibody, human IgG1, kappa)
heavy 1: not shown
heavy 2: not shown
light: B1 light
notes: He Ab; copies: 1 + 1 + 2
- He/Con 3a: 82.5%

B19: GpH7-A5/GpH7-B3 variant Q295_13S/GpL16-k0 (antibody, human IgG1, kappa)
heavy 1: not shown
heavy 2: not shown
light: B1 light
notes: He Ab; copies: 1 + 1 + 2
- He/Con 3a: 90.4%

B20: GpH7-A5/GpH7-B3 variant P331_20W/GpL16-k0 (antibody, human IgG1, kappa)
heavy 1: not shown
heavy 2: not shown
light: B1 light
notes: He Ab; copies: 1 + 1 + 2
- He/Con 3a: 71.9%

B21: GpH7-A5/GpH7-B3 variant Q295_11K/GpL16-k0 (antibody, human IgG1, kappa)
heavy 1: not shown
heavy 2: not shown
light: B1 light
notes: He Ab; copies: 1 + 1 + 2
- He/Con 3a: 81.8%

B22: GpH7-A5/GpH7-B3 variant S267_06M/GpL16-k0 (antibody, human IgG1, kappa)
heavy 1: not shown
heavy 2: not shown
light: B1 light
notes: He Ab; copies: 1 + 1 + 2
- He/Con 3a: 65.3%

B23: GpH7-A5/GpH7-B3 variant S239_09D/GpL16-k0 (antibody, human IgG1, kappa)
heavy 1: not shown
heavy 2: not shown
light: B1 light
notes: He Ab; copies: 1 + 1 + 2
- He/Con 3a: 156%

B24: GpH7-A5/GpH7-B3 variant P271_16H/GpL16-k0 (antibody, human IgG1, kappa)
heavy 1: not shown
heavy 2: not shown
light: B1 light
notes: He Ab; copies: 1 + 1 + 2
- He/Con 3a: 70.3%

B25: GpH7-A5/GpH7-B3 variant P331_07I/GpL16-k0 (antibody, human IgG1, kappa)
heavy 1: not shown
heavy 2: not shown
light: B1 light
notes: He Ab; copies: 1 + 1 + 2
- He/Con 3a: 60.4%

B26: GpH7-A5/GpH7-B3 variant Q295_12R/GpL16-k0 (antibody, human IgG1, kappa)
heavy 1: not shown
heavy 2: not shown
light: B1 light
notes: He Ab; copies: 1 + 1 + 2
- He/Con 3a: 73.2%

B27: GpH7-A5/GpH7-B3 variant Q295_18N/GpL16-k0 (antibody, human IgG1, kappa)
heavy 1: not shown
heavy 2: not shown
light: B1 light
notes: He Ab; copies: 1 + 1 + 2
- He/Con 3a: 85.7%

B28: GpH7-A5/GpH7-B3 variant Q295_15Y/GpL16-k0 (antibody, human IgG1, kappa)
heavy 1: not shown
heavy 2: not shown
light: B1 light
notes: He Ab; copies: 1 + 1 + 2
- He/Con 3a: 81.5%

B29: GpH7-A5/GpH7-B3 variant P331_19Q/GpL16-k0 (antibody, human IgG1, kappa)
heavy 1: not shown
heavy 2: not shown
light: B1 light
notes: He Ab; copies: 1 + 1 + 2
- He/Con 3a: 73.9%

B30: GpH7-A5/GpH7-B3 variant S239_01G/GpL16-k0 (antibody, human IgG1, kappa)
heavy 1: not shown
heavy 2: not shown
light: B1 light
notes: He Ab; also called 3239_01G; copies: 1 + 1 + 2
- He/Con 3a: 72%

B31: GpH7-A5/GpH7-B3 variant S239_18N/GpL16-k0 (antibody, human IgG1, kappa)
heavy 1: not shown
heavy 2: not shown
light: B1 light
notes: He Ab; copies: 1 + 1 + 2
- He/Con 3a: 104%

B32: GpH7-A5/GpH7-B3 variant P331_15Y/GpL16-k0 (antibody, human IgG1, kappa)
heavy 1: not shown
heavy 2: not shown
light: B1 light
notes: He Ab; copies: 1 + 1 + 2
- He/Con 3a: 74.9%

B33: GpH7-A5/GpH7-B3 variant S267_02A/GpL16-k0 (antibody, human IgG1, kappa)
heavy 1: not shown
heavy 2: not shown
light: B1 light
notes: He Ab; copies: 1 + 1 + 2
- He/Con 3a: 149%

B34: GpH7-A5/GpH7-B3 variant S267_01G/GpL16-k0 (antibody, human IgG1, kappa)
heavy 1: not shown
heavy 2: not shown
light: B1 light
notes: He Ab; copies: 1 + 1 + 2
- He/Con 3a: 53.3%

B35: GpH7-A5/GpH7-B3 variant Q295_06M/GpL16-k0 (antibody, human IgG1, kappa)
heavy 1: not shown
heavy 2: not shown
light: B1 light
notes: He Ab; copies: 1 + 1 + 2
- He/Con 3a: 100%

B36: GpH7-A5/GpH7-B3 variant Q295_10E/GpL16-k0 (antibody, human IgG1, kappa)
heavy 1: not shown
heavy 2: not shown
light: B1 light
notes: He Ab; copies: 1 + 1 + 2
- He/Con 3a: 105%

B37: GpH7-A5/GpH7-B3 variant Q295_03V/GpL16-k0 (antibody, human IgG1, kappa)
heavy 1: not shown
heavy 2: not shown
light: B1 light
notes: He Ab; copies: 1 + 1 + 2
- He/Con 3a: 86.2%

B38: GpH7-A5/GpH7-B3 variant P271_20W/GpL16-k0 (antibody, human IgG1, kappa)
heavy 1: not shown
heavy 2: not shown
light: B1 light
notes: He Ab; copies: 1 + 1 + 2
- He/Con 3a: 77.8%

B39: GpH7-A5/GpH7-B3 variant Q295_02A/GpL16-k0 (antibody, human IgG1, kappa)
heavy 1: not shown
heavy 2: not shown
light: B1 light
notes: He Ab; copies: 1 + 1 + 2
- He/Con 3a: 111%

B40: GpH7-A5/GpH7-B3 variant P331_18N/GpL16-k0 (antibody, human IgG1, kappa)
heavy 1: not shown
heavy 2: not shown
light: B1 light
notes: He Ab; copies: 1 + 1 + 2
- He/Con 3a: 67.1%

B41: GpH7-A5/GpH7-B3 variant Q295_05P/GpL16-k0 (antibody, human IgG1, kappa)
heavy 1: not shown
heavy 2: not shown
light: B1 light
notes: He Ab; copies: 1 + 1 + 2
- He/Con 3a: 74.4%

B42: GpH7-A5/GpH7-B3 variant P331_06M/GpL16-k0 (antibody, human IgG1, kappa)
heavy 1: not shown
heavy 2: not shown
light: B1 light
notes: He Ab; copies: 1 + 1 + 2
- He/Con 3a: 68.4%

B43: GpH7-A5/GpH7-B3 variant P331_03V/GpL16-k0 (antibody, human IgG1, kappa)
heavy 1: not shown
heavy 2: not shown
light: B1 light
notes: He Ab; copies: 1 + 1 + 2
- He/Con 3a: 66.9%

B44: GpH7-A5/GpH7-B3 variant P329_10E/GpL16-k0 (antibody, human IgG1, kappa)
heavy 1: not shown
heavy 2: not shown
light: B1 light
notes: He Ab; copies: 1 + 1 + 2
- He/Con 3a: 52.7%

B45: GpH7-A5/GpH7-B3 variant S239_06M/GpL16-k0 (antibody, human IgG1, kappa)
heavy 1: not shown
heavy 2: not shown
light: B1 light
notes: He Ab; copies: 1 + 1 + 2
- He/Con 3a: 73.9%

B46: GpH7-A5/GpH7-B3 variant P331_08L/GpL16-k0 (antibody, human IgG1, kappa)
heavy 1: not shown
heavy 2: not shown
light: B1 light
notes: He Ab; copies: 1 + 1 + 2
- He/Con 3a: 66%

B47: GpH7-A5/GpH7-B3 variant Q295_16H/GpL16-k0 (antibody, human IgG1, kappa)
heavy 1: not shown
heavy 2: not shown
light: B1 light
notes: He Ab; copies: 1 + 1 + 2
- He/Con 3a: 80.2%

B48: GpH7-A5/GpH7-B3 variant Q295_08L/GpL16-k0 (antibody, human IgG1, kappa)
heavy 1: not shown
heavy 2: not shown
light: B1 light
notes: He Ab; copies: 1 + 1 + 2
- He/Con 3a: 120%

B49: GpH7-A5/GpH7-B3 variant P331_10E/GpL16-k0 (antibody, human IgG1, kappa)
heavy 1: not shown
heavy 2: not shown
light: B1 light
notes: He Ab; copies: 1 + 1 + 2
- He/Con 3a: 68.7%

B50: GpH7-A5/GpH7-B3 variant P331_11K/GpL16-k0 (antibody, human IgG1, kappa)
heavy 1: not shown
heavy 2: not shown
light: B1 light
notes: He Ab; copies: 1 + 1 + 2
- He/Con 3a: 61.8%

B51: GpH7-A5/GpH7-B3 variant P331_04F/GpL16-k0 (antibody, human IgG1, kappa)
heavy 1: not shown
heavy 2: not shown
light: B1 light
notes: He Ab; copies: 1 + 1 + 2
- He/Con 3a: 70.7%

B52: GpH7-A5/GpH7-B3 variant S239_08L/GpL16-k0 (antibody, human IgG1, kappa)
heavy 1: not shown
heavy 2: not shown
light: B1 light
notes: He Ab; copies: 1 + 1 + 2
- He/Con 3a: 90%

B53: GpH7-A5/GpH7-B3 variant P329_02A/GpL16-k0 (antibody, human IgG1, kappa)
heavy 1: not shown
heavy 2: not shown
light: B1 light
notes: He Ab; copies: 1 + 1 + 2
- He/Con 3a: 55.2%

B54: GpH7-A5/GpH7-B3 variant S239_10E/GpL16-k0 (antibody, human IgG1, kappa)
heavy 1: not shown
heavy 2: not shown
light: B1 light
notes: He Ab; copies: 1 + 1 + 2
- He/Con 3a: 171%

B55: GpH7-A5/GpH7-B3 variant S239_07I/GpL16-k0 (antibody, human IgG1, kappa)
heavy 1: not shown
heavy 2: not shown
light: B1 light
notes: He Ab; copies: 1 + 1 + 2
- He/Con 3a: 75%

B56: GpH7-A5/GpH7-B3 variant P331_16H/GpL16-k0 (antibody, human IgG1, kappa)
heavy 1: not shown
heavy 2: not shown
light: B1 light
notes: He Ab; copies: 1 + 1 + 2
- He/Con 3a: 73.4%
